This is an account of results in US20170014503A1.

Where no end group is shown, it is not given here.

For the experiment, the target named is 2F5 mAb. The experiment in a line: cell-based or functional assay.

Molecule QQEKNEQELLELDKWASLWN (not fully specified) [SP62 peptide gp41 652-671, biotinylated] returned an IC50 of 2F5 mAb against TND-669S Env-pseudovirus after pre-absorption with 0.3 µM peptide of 0.911.
